To fix the notation:
B1: CPEB3 Ribozyme (parent)
chain: GGGGGCCACAGCAGAAGCGUUCACGUCGCGGCCCCUGUCAGAUUCUGGUGAAUCUGCGAAUUCUGCUGU

This is an account of results in the RNAGym collection of RNA variant scans (doi:10.7554/elife.80360).

In this data set the parent is B1. As to the kind of experiment: self-cleavage, relative activity (ratio to wild type); higher = more cleavage; co-transcriptional.
Regarding C6G G37U, the self-cleavage was found to be 0.0713.
The result for C6G U20C reads 0.0949; that for C6G U20G, 0.0342; that for G5C C27G, 0.0907.
As for G5C C27A, the figure is 0.109; as for C6A C7U, 0.115; as for C6A C7G, 0.0736.
As for C6G U26C, the figure is 0.249; as for C6U A15U, 0.698.
Turning to C7A A23C, the self-cleavage turned out to be 0.407.
The result for C6U A13G reads 0.987; that for C6U A13U, 0.867.
As for C6G A10C, the figure is 0.284; as for C6U U26G, 0.91; as for C6A U36A, 0.128.
The result for C6A U36G reads 0.138; that for G5C C54A, 0.123; that for C7A C32A, 0.165.
On to C6G U62C, for which the self-cleavage turned out to be 0.0999.
As for C6U A42G, the figure is 0.951.
As for G5U U62C, the figure is 0.143.
The result for G5U U62G reads 0.103; that for G5U U21G, 0.0935.
Take G5C G50U: the self-cleavage came out at 0.243.
With C6G G50C, the self-cleavage turned out to be 0.205.
On to C6G C45G, for which the self-cleavage is 0.376.
The result for C6G C12U reads 0.271; that for C6G C12G, 0.253; that for C6G C12A, 0.102.
As for C6A U64C, the figure is 0.304.
As for G5C C66G, the figure is 0.186; as for G5C C66A, 0.202; as for C6G U67A, 0.325.
Consider C6G U21A, for which the self-cleavage worked out at 0.246.
As for C6A C33A, the figure is 0.127.
For G5U C45G, the self-cleavage is 0.149.
For C6G U36C, the self-cleavage is 0.184.
The result for C7A A60G reads 0.272; that for C6G A51C, 0.154.
The result for C6G A51G reads 0.356; that for C6U U20A, 0.115.
With C6U U20C, the self-cleavage amounted to 0.144.
As for G5C C7U, the self-cleavage was 0.156.
With C6U C18U, the self-cleavage was found to be 0.727.
The result for C6U C18G reads 0.0786; that for G5C G31A, 0.2.
The result for G5C G31C reads 0.0712; that for G5C U62C, 0.141.
As to G5C U62G, the self-cleavage was determined as 0.179.
As for C6G G41C, the figure is 0.118; as for C7A A40G, 0.416.
The result for C6U A51U reads 0.986.
In the case of C6U A51G, the self-cleavage came out at 1.01.
The result for C6A C24U reads 0.195; that for C6A C45A, 0.523.
The result for C6U G65A reads 0.849.
The result for C6G U61A reads 0.128.
Turning to C6G U61G, the self-cleavage amounted to 0.209.
As for C6A G11C, the figure is 0.29; as for C6U G56A, 0.962.
C6A G19U: the self-cleavage amounted to 0.131.
As for G5U G50A, the figure is 0.309; as for C6A U62A, 0.175; as for C6A U62G, 0.211.
As for C6U U62C, the figure is 0.811; as for G5U G48A, 0.39.
The result for C6G A42G reads 0.324.
As to C6A U61A, the self-cleavage was found to be 0.217.
The result for G5U U26C reads 0.155.
The result for G5U U49G reads 0.171; that for G5U U38A, 0.235.
For the variant G5U U38G, the self-cleavage turned out to be 0.0473.
The result for G5U G31U reads 0.0958.
The result for G5U C27A reads 0.116; that for G5U C12A, 0.112.
Regarding G5U C12G, the self-cleavage was 0.1.
As for G5U G11A, the figure is 0.185; as for G5U G11C, 0.0768.
As for C6U C39A, the figure is 0.852; as for G5C G58A, 0.198.
As for G5C G58C, the figure is 0.293.
As for G5U U61G, the self-cleavage was found to be 0.0827.
Regarding G5C C45A, the self-cleavage stood at 0.283.
The result for C6U G17U reads 0.209; that for G5C U44A, 0.24.
As for G5C U44G, the figure is 0.203; as for G5U A52C, 0.176; as for C7A A16G, 0.383.
As for C7A A16C, the figure is 0.0791; as for C6G C29A, 0.0897; as for C6G G25A, 0.0449.
As for C6A A13C, the self-cleavage came out at 0.262.
The result for C6A A13U reads 0.346.
The result for C6U U44G reads 1.01.
Consider C6U G28U, for which the self-cleavage is 0.168.
The result for C6A G48A reads 0.712; that for C6A G48U, 0.776; that for C6U U38A, 0.916.
As for C6G C66G, the figure is 0.311; as for C7A A13C, 0.277; as for G5U, 0.316.
The result for G5C C22A reads 0.107.
For the variant G5U G19A, the self-cleavage was determined as 0.06.
The result for C6A G50A reads 0.708.
The result for G5U C18U reads 0.063; that for C6G A23G, 0.164; that for C6G A23U, 0.526.
As for C6A A8G, the self-cleavage was 0.53.
The result for G5C U46G reads 0.235.
For C6A U26C, the self-cleavage is 0.333.
The result for C6A U55G reads 0.2.
C6A U55A: the self-cleavage worked out at 0.396.
Regarding C6U A52G, the self-cleavage came to 0.997.
The result for G5C C57U reads 0.0922; that for G5C U55G, 0.115.
In the case of G5C U55C, the self-cleavage is 0.175.
The result for C7A C22U reads 0.139; that for C7A C22A, 0.0549; that for C6G C34A, 0.0671.
As for C6U U43C, the figure is 0.902; as for C6U U43G, 0.815.
The result for C6A C9U reads 0.94; that for C6U G25U, 0.18; that for C6U G25A, 0.141.
For the variant C6A C29G, the self-cleavage turned out to be 0.179.
As for G5U U67C, the figure is 0.628; as for G5U U67A, 0.743.
As for G5U C24A, the figure is 0.105; as for C6U C35U, 0.78; as for C6U C35G, 0.2.
As for C6G A16G, the figure is 0.127.
Regarding C6A C39G, the self-cleavage is 0.372.
The result for C6U C33A reads 0.257.
As for C6U C33G, the figure is 0.145.
As for G5U C33G, the figure is 0.0433; as for G5U C33A, 0.0802; as for G5U C33U, 0.121.
In the case of C6U C22U, the self-cleavage came to 0.198.
As for C6U C22A, the figure is 0.172.
On to G5C U49G, for which the self-cleavage turned out to be 0.282.
The result for G5C U49C reads 0.282; that for G5C U49A, 0.287.
The result for C6U A40G reads 0.999; that for G5C C33U, 0.468; that for G5U A59C, 0.181.
The result for G5U A59G reads 0.139.
On to G5C C12G, for which the self-cleavage was 0.141.
For the variant G5C C12U, the self-cleavage turned out to be 0.256.
As for C7A A15U, the figure is 0.135; as for G5U U55C, 0.147; as for C6G G65C, 0.158.
The result for C6G A59U reads 0.152; that for C7A C39G, 0.428.
As for C6G A52U, the figure is 0.254; as for C6G C7G, 0.0901; as for C6G C7A, 0.0493.
For C6G A15G, the self-cleavage was found to be 0.212.
With C6G A15U, the self-cleavage was found to be 0.128.
The result for G5U C22U reads 0.0607; that for G5U C22A, 0.0283; that for C6U G31A, 1.02.
As for G5U G14C, the figure is 0.0568.
The result for G5C C24A reads 0.112; that for G5U G58U, 0.37.
In the case of G5U G58A, the self-cleavage was determined as 0.172.
As for G5U G58C, the figure is 0.2.
The result for C6U C63A reads 0.806.
